Our source for the Kd values is article PMC9472616.

Assay [1] deals with American mink ACE2 fused to mouse Fc (AmkACE2-mFc) (American mink (Neovison vison)). Nature of the assay: SPR. On the technique in general: Surface plasmon resonance follows binding to a sensor surface in real time, without labels.
In assay [2] the target is European mink ACE2 fused to mouse Fc (EmkACE2-mFc) (European mink). Briefly: SPR.

Usually Kd stands for a measure of binding affinity in units of concentration. Read a high Kd as lower affinity. Turning to “SARS-CoV-2 WT RBD (from UniProt P0DTC2 319-541) (domain or fragment)”, the figures for the Kd in assay [1] and in assay [2] were 8.92 µM and 52.8 µM, respectively.
